Reference: US20230158141A1 (YAFEI SHANGHAI BIOLOG MEDICINE SCIENCE AND TECHNOLOGY, published 2023)
Substitutions are numbered along the chain they refer to. Numbers in names are those of the source. Where two headings read alike, the source gives them in different places.

B1: anti-PD-1 antibody 2 heavy chain G33C (antibody, human IgG4 S228P, kappa, V domains shown)
VH: QVQLVESGGGVVQPGRSLRLDCKASGITFSNSCMHWVRQAPGKGLEWVAVIWYDGSKRYYADSVKGRFTISRDNSKNTLFLQMNSLRAEDTAVYYCATNDDYWGQGTLVTVSS
VL: EIVLTQSPATLSLSPGERATLSCRASQSVSSYLAWYQQKPGQAPRLLIYDASNRATGIPARFSGSGSGTDFTLTISSLEPEDFAVYYCQQSSNWPRTFGQGTKVEIKR
B2: anti-PD-1 antibody 2 HC Thr98Cys (antibody, human IgG4 S228P, kappa, V domains shown)
VH: B1 VH with C33G, T98C
VL: B1 VL
modifications: arm on Cys98 as named in each row
B3: anti-PD-1 antibody 2 HC Ser30Cys (antibody, human IgG4 S228P, kappa, V domains shown)
VH: B1 VH with S30C, C33G
VL: B1 VL
modifications: arm on Cys30 as named in each row
B4: anti-PD-1 antibody 2 light chain T56C (antibody, human IgG4 S228P, kappa, V domains shown)
VH: B1 VH with C33G
VL: B1 VL with T56C
B5: anti-PD-1 antibody 2 HC Ser75Cys (antibody, human IgG4 S228P, kappa, V domains shown)
VH: B1 VH with C33G, S75C
VL: B1 VL
modifications: arm on Cys75 as named in each row
B6: anti-PD-1 antibody 2 heavy chain G66C (antibody, human IgG4 S228P, kappa, V domains shown)
VH: B1 VH with C33G, G66C
VL: B1 VL
B7: anti-PD-1 antibody 2 heavy chain S32C (antibody, human IgG4 S228P, kappa, V domains shown)
VH: B1 VH with S32C, C33G
VL: B1 VL
B8: anti-PD-1 antibody 2 HC Gly44Cys (antibody, human IgG4 S228P, kappa, V domains shown)
VH: B1 VH with C33G, G44C
VL: B1 VL
modifications: arm on Cys44 as named in each row
B9: anti-PD-1 antibody 2 light chain T97C (antibody, human IgG4 S228P, kappa, V domains shown)
VH: B1 VH with C33G
VL: B1 VL with T97C
B10: anti-PD-1 antibody 2 HC Gly26Cys (antibody, human IgG4 S228P, kappa, V domains shown)
VH: B1 VH with G26C, C33G
VL: B1 VL
modifications: arm on Cys26 as named in each row
B11: anti-PD-1 antibody 2 HC Gly15Cys (antibody, human IgG4 S228P, kappa, V domains shown)
VH: B1 VH with G15C, C33G
VL: B1 VL
modifications: arm on Cys15 as named in each row
B12: anti-PD-1 antibody 2 HC Gly42Cys (antibody, human IgG4 S228P, kappa, V domains shown)
VH: B1 VH with C33G, G42C
VL: B1 VL
modifications: arm on Cys42 as named in each row
B13: anti-PD-1 antibody 2 heavy chain G55C (antibody, human IgG4 S228P, kappa, V domains shown)
VH: B1 VH with C33G, G55C
VL: B1 VL
B14: anti-PD-1 antibody 2 HC Ser25Cys (antibody, human IgG4 S228P, kappa, V domains shown)
VH: B1 VH with S25C, C33G
VL: B1 VL
modifications: arm on Cys25 as named in each row
B15: anti-PD-1 antibody 2 HC Thr91Cys (antibody, human IgG4 S228P, kappa, V domains shown)
VH: B1 VH with C33G, T91C
VL: B1 VL
modifications: arm on Cys91 as named in each row
B16: anti-PD-1 antibody 2 HC Ser71Cys (antibody, human IgG4 S228P, kappa, V domains shown)
VH: B1 VH with C33G, S71C
VL: B1 VL
modifications: arm on Cys71 as named in each row
B17: anti-PD-1 antibody 2 HC Thr78Cys (antibody, human IgG4 S228P, kappa, V domains shown)
VH: B1 VH with C33G, T78C
VL: B1 VL
modifications: arm on Cys78 as named in each row
B18: anti-PD-1 antibody 2 HC Ser17Cys (antibody, human IgG4 S228P, kappa, V domains shown)
VH: B1 VH with S17C, C33G
VL: B1 VL
modifications: arm on Cys17 as named in each row
B19: anti-PD-1 antibody 2 HC Ala88Cys (antibody, human IgG4 S228P, kappa, V domains shown)
VH: B1 VH with C33G, A88C
VL: B1 VL
modifications: arm on Cys88 as named in each row
B20: anti-PD-1 antibody 2 heavy chain S30C (antibody, human IgG4 S228P, kappa, V domains shown)
VH: B1 VH with S30C, C33G
VL: B1 VL
B21: anti-PD-1 antibody 2 HC Ser85Cys (antibody, human IgG4 S228P, kappa, V domains shown)
VH: B1 VH with C33G, S85C
VL: B1 VL
modifications: arm on Cys85 as named in each row
B22: anti-PD-1 antibody 2 HC Gly8Cys (antibody, human IgG4 S228P, kappa, V domains shown)
VH: B1 VH with G8C, C33G
VL: B1 VL
modifications: arm on Cys8 as named in each row
B23: anti-PD-1 antibody 2 HC Ala40Cys (antibody, human IgG4 S228P, kappa, V domains shown)
VH: B1 VH with C33G, A40C
VL: B1 VL
modifications: arm on Cys40 as named in each row
B24: anti-PD-1 antibody 2 HC Gly9Cys (antibody, human IgG4 S228P, kappa, V domains shown)
VH: B1 VH with G9C, C33G
VL: B1 VL
modifications: arm on Cys9 as named in each row
B25: anti-PD-1 antibody 2 HC Thr28Cys (antibody, human IgG4 S228P, kappa, V domains shown)
VH: B1 VH with T28C, C33G
VL: B1 VL
modifications: arm on Cys28 as named in each row
B26: anti-PD-1 antibody 2 HC Ala24Cys (antibody, human IgG4 S228P, kappa, V domains shown)
VH: B1 VH with A24C, C33G
VL: B1 VL
modifications: arm on Cys24 as named in each row
B27: anti-PD-1 antibody 2 HC Ala92Cys (antibody, human IgG4 S228P, kappa, V domains shown)
VH: B1 VH with C33G, A92C
VL: B1 VL
modifications: arm on Cys92 as named in each row
B28: anti-PD-1 antibody 1 heavy chain G50C (antibody, human IgG4 S228P, kappa, V domains shown)
VH: QVQLVQSGVEVKKPGASVKVSCKASGYTFTNYYMYWVRQAPGQGLEWMGCINPSNGGTNFNEKFKNRVTLTTDSSTTTAYMELKSLQFDDTAVYYCARRDYRFDMGFDYWGQGTTVTVSS
VL: EIVLTQSPATLSLSPGERATLSCRASKGVSTSGYSYLHWYQQKPGQAPRLLIYLASYLESGVPARFSGSGSGTDFTLTISSLEPEDFAVYYCQHSRDLPLTFGGGTKVEIKR
B29: anti-PD-1 antibody 1 heavy chain G57C (antibody, human IgG4 S228P, kappa, V domains shown)
VH: B28 VH with C50G, G57C
VL: B28 VL
B30: anti-PD-1 antibody 1 heavy chain G106C (antibody, human IgG4 S228P, kappa, V domains shown)
VH: B28 VH with C50G, G106C
VL: B28 VL
B31: anti-PD-1 antibody 1 heavy chain T30C (antibody, human IgG4 S228P, kappa, V domains shown)
VH: B28 VH with T30C, C50G
VL: B28 VL
B32: anti-PD-1 antibody 1 heavy chain T58C (antibody, human IgG4 S228P, kappa, V domains shown)
VH: B28 VH with C50G, T58C
VL: B28 VL
B33: anti-PD-1 antibody 1 heavy chain S54C (antibody, human IgG4 S228P, kappa, V domains shown)
VH: B28 VH with C50G, S54C
VL: B28 VL
B34: anti-PD-1 antibody 1 heavy chain G56C (antibody, human IgG4 S228P, kappa, V domains shown)
VH: B28 VH with C50G, G56C
VL: B28 VL

Key:
PD-1 [1] = molecular target: T1, PD-1 (UniProt Q15116 25-167, limits assumed); experiment: ELISA, OD mutant/OD WT; A=90-110%
T1 sequence (Q15116 25-167 limits assumed): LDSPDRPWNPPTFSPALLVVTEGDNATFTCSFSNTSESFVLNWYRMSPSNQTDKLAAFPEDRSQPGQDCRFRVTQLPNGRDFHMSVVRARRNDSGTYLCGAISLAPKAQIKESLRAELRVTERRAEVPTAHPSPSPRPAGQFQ

PD-1 [2] = molecular target: T2, PD-1 (UniProt Q15116 25-167, limits assumed); experiment: ELISA; Cys mutant, no arm
T2 sequence (Q15116 25-167 limits assumed): as above

PD-1 [3] = molecular target: T2, PD-1; experiment: ELISA; S9 on the Cys
PD-1 [4] = molecular target: T2, PD-1; experiment: ELISA; S13 on the Cys
PD-1 [5] = molecular target: T1, PD-1; experiment: ELISA, OD mutant/OD WT; A=90-110%; remark: listed apart in the source

Row | binding activity (OD after mutation/OD wild type) (PD-1 [1]) [%] | binding activity, % of wild type (PD-1 [2]) [%] | binding activity, % of wild type (PD-1 [3]) [%] | binding activity, % of wild type (PD-1 [4]) [%] | binding activity (OD after mutation/OD wild type) (PD-1 [5]) [%] | Binder
1 | 90 to 110 | – | – | – | – | B1
2 | – | 89.6 | 59.9 | 32.1 | – | B2
3 | – | 89.7 | 31.8 | 15.3 | – | B3
4 | – | – | – | – | 90 to 110 | B4
5 | – | 96.3 | 38.7 | 14.6 | – | B5
6 | 90 to 110 | – | – | – | – | B6
7 | 90 to 110 | – | – | – | – | B7
8 | – | 99.3 | 78.3 | 30.8 | – | B8
9 | – | – | – | – | 90 to 110 | B9
10 | – | 95.4 | 31.8 | 11.7 | – | B10
11 | – | 85.6 | 32.5 | 21.5 | – | B11
12 | – | 83.4 | 63.6 | 29.8 | – | B12
13 | 90 to 110 | – | – | – | – | B13
14 | – | 99.8 | 48.7 | 27 | – | B14
15 | – | 86 | 48.9 | 21.7 | – | B15
16 | – | 81.4 | 56.9 | 22.9 | – | B16
17 | – | 92.2 | 86.3 | 42.4 | – | B17

Row | binding activity (OD after mutation/OD wild type) (PD-1 [1]) [%] | binding activity, % of wild type (PD-1 [2]) [%] | binding activity, % of wild type (PD-1 [3]) [%] | binding activity, % of wild type (PD-1 [4]) [%] | binding activity (OD after mutation/OD wild type) (PD-1 [5]) [%] | Binder
18 | – | 85 | 75.3 | 42.4 | – | B18
19 | – | 84.3 | 46.8 | 27 | – | B19
20 | 90 to 110 | – | – | – | – | B20
21 | – | 98.8 | 69.4 | 32.3 | – | B21
22 | – | 93.2 | 78.3 | 34.2 | – | B22
23 | – | 85.3 | 50.3 | 37.2 | – | B23
24 | – | 97.8 | 87.4 | 24.6 | – | B24
25 | – | 86.4 | 29.9 | 15 | – | B25
26 | – | 99.6 | 45.6 | 32.3 | – | B26
27 | – | 85 | 64.6 | 15 | – | B27
28 | 90 to 110 | – | – | – | – | B28
29 | 90 to 110 | – | – | – | – | B29
30 | 90 to 110 | – | – | – | – | B30
31 | 90 to 110 | – | – | – | – | B31
32 | 90 to 110 | – | – | – | – | B32
33 | 90 to 110 | – | – | – | – | B33
34 | 90 to 110 | – | – | – | – | B34
